This is an account of results in the Human Domainome abundance scans (Beltran et al. 2025).

± gives the uncertainty stated by the source.

The series is described as follows: abundance fitness (aPCA) (normalised: wild type 0, dead -1); higher = more abundant; growth selection in yeast, the domain comes from the species named. The note with it: Homo sapiens.
“NEDD4-like E3 ubiquitin-protein ligase WWP2 G449A, O00308” returned an abundance fitness of -0.269 ± 0.049.

“NEDD4-like E3 ubiquitin-protein ligase WWP2 G449C, O00308”: the abundance fitness was -0.668 ± 0.076.

“NEDD4-like E3 ubiquitin-protein ligase WWP2 G449D, O00308” yielded an abundance fitness of -0.127 ± 0.044.

“NEDD4-like E3 ubiquitin-protein ligase WWP2 G449E, O00308” registered an abundance fitness of -0.167 ± 0.053.

As for “NEDD4-like E3 ubiquitin-protein ligase WWP2 G449F, O00308”, the abundance fitness was -0.163 ± 0.052.

In the case of “NEDD4-like E3 ubiquitin-protein ligase WWP2 G449H, O00308”, the abundance fitness is -0.274 ± 0.087.

In turn, “NEDD4-like E3 ubiquitin-protein ligase WWP2 G449I, O00308” returned an abundance fitness of -1.09 ± 0.18.

In turn, “NEDD4-like E3 ubiquitin-protein ligase WWP2 G449L, O00308” showed an abundance fitness of -0.174 ± 0.038.

Substance “NEDD4-like E3 ubiquitin-protein ligase WWP2 G449M, O00308” had an abundance fitness of -0.11 ± 0.042.

For “NEDD4-like E3 ubiquitin-protein ligase WWP2 G449N, O00308”, the abundance fitness was determined as 0.119 ± 0.065.

Consider “NEDD4-like E3 ubiquitin-protein ligase WWP2 G449P, O00308”, for which the abundance fitness is -0.937 ± 0.11.

“NEDD4-like E3 ubiquitin-protein ligase WWP2 G449Q, O00308” yielded an abundance fitness of -0.107 ± 0.064.

As to “NEDD4-like E3 ubiquitin-protein ligase WWP2 G449R, O00308”, the abundance fitness was -0.14 ± 0.047.

As to “NEDD4-like E3 ubiquitin-protein ligase WWP2 G449S, O00308”, the abundance fitness was -0.17 ± 0.029.

For “NEDD4-like E3 ubiquitin-protein ligase WWP2 G449V, O00308”, the abundance fitness was -0.679 ± 0.035.

Consider “NEDD4-like E3 ubiquitin-protein ligase WWP2 G449W, O00308”, for which the abundance fitness was -0.283 ± 0.053.

“NEDD4-like E3 ubiquitin-protein ligase WWP2 G449Y, O00308” showed an abundance fitness of -0.205 ± 0.067.

“NEDD4-like E3 ubiquitin-protein ligase WWP2 G458A, O00308” gave an abundance fitness of -0.202 ± 0.059.

Substance “NEDD4-like E3 ubiquitin-protein ligase WWP2 G458C, O00308” showed an abundance fitness of -0.193 ± 0.051.

The substance “NEDD4-like E3 ubiquitin-protein ligase WWP2 G458D, O00308” registered an abundance fitness of -0.343 ± 0.079.

Take “NEDD4-like E3 ubiquitin-protein ligase WWP2 G458E, O00308”: the abundance fitness was -0.367 ± 0.063.

“NEDD4-like E3 ubiquitin-protein ligase WWP2 G458F, O00308” registered an abundance fitness of -0.539 ± 0.1.

Substance “NEDD4-like E3 ubiquitin-protein ligase WWP2 G458H, O00308” registered an abundance fitness of -0.234 ± 0.068.

“NEDD4-like E3 ubiquitin-protein ligase WWP2 G458I, O00308” displayed an abundance fitness of -1.18 ± 0.19.

In turn, “NEDD4-like E3 ubiquitin-protein ligase WWP2 G458K, O00308” had an abundance fitness of -0.049 ± 0.045.

Substance “NEDD4-like E3 ubiquitin-protein ligase WWP2 G458L, O00308” displayed an abundance fitness of -0.283 ± 0.041.

In the case of “NEDD4-like E3 ubiquitin-protein ligase WWP2 G458M, O00308”, the abundance fitness was -0.148 ± 0.041.

Substance “NEDD4-like E3 ubiquitin-protein ligase WWP2 G458N, O00308” showed an abundance fitness of -0.308 ± 0.093.

“NEDD4-like E3 ubiquitin-protein ligase WWP2 G458P, O00308”: the abundance fitness was -1.03 ± 0.064.

Take “NEDD4-like E3 ubiquitin-protein ligase WWP2 G458Q, O00308”: the abundance fitness is -0.244 ± 0.064.

Take “NEDD4-like E3 ubiquitin-protein ligase WWP2 G458R, O00308”: the abundance fitness is -0.139 ± 0.046.

As to “NEDD4-like E3 ubiquitin-protein ligase WWP2 G458S, O00308”, the abundance fitness was -0.176 ± 0.055.

Turning to “NEDD4-like E3 ubiquitin-protein ligase WWP2 G458T, O00308”, the abundance fitness was -0.505 ± 0.058.

Substance “NEDD4-like E3 ubiquitin-protein ligase WWP2 G458V, O00308” yielded an abundance fitness of -0.992 ± 0.065.

The substance “NEDD4-like E3 ubiquitin-protein ligase WWP2 G458W, O00308” came in with an abundance fitness of -0.461 ± 0.045.

Turning to “NEDD4-like E3 ubiquitin-protein ligase WWP2 G458Y, O00308”, the abundance fitness was -0.262 ± 0.064.

“NEDD4-like E3 ubiquitin-protein ligase WWP2 G478A, O00308” came in with an abundance fitness of 0.035 ± 0.058.

“NEDD4-like E3 ubiquitin-protein ligase WWP2 G478C, O00308”: the abundance fitness is -0.001 ± 0.039.

“NEDD4-like E3 ubiquitin-protein ligase WWP2 G478D, O00308” showed an abundance fitness of -0.036 ± 0.05.

The substance “NEDD4-like E3 ubiquitin-protein ligase WWP2 G478E, O00308” had an abundance fitness of -0.036 ± 0.063.

As for “NEDD4-like E3 ubiquitin-protein ligase WWP2 G478F, O00308”, the abundance fitness was -0.014 ± 0.046.

In turn, “NEDD4-like E3 ubiquitin-protein ligase WWP2 G478H, O00308” gave an abundance fitness of -0.045 ± 0.069.

“NEDD4-like E3 ubiquitin-protein ligase WWP2 G478I, O00308” yielded an abundance fitness of 0.136 ± 0.073.

In turn, “NEDD4-like E3 ubiquitin-protein ligase WWP2 G478K, O00308” showed an abundance fitness of 0.061 ± 0.067.

Regarding “NEDD4-like E3 ubiquitin-protein ligase WWP2 G478L, O00308”, the abundance fitness is 0.012 ± 0.035.

In the case of “NEDD4-like E3 ubiquitin-protein ligase WWP2 G478M, O00308”, the abundance fitness was -0.08 ± 0.057.

For the substance “NEDD4-like E3 ubiquitin-protein ligase WWP2 G478N, O00308”, the abundance fitness was -0.136 ± 0.068.

Substance “NEDD4-like E3 ubiquitin-protein ligase WWP2 G478P, O00308” showed an abundance fitness of -0.005 ± 0.052.

Substance “NEDD4-like E3 ubiquitin-protein ligase WWP2 G478Q, O00308” came in with an abundance fitness of 0.038 ± 0.048.

In the case of “NEDD4-like E3 ubiquitin-protein ligase WWP2 G478R, O00308”, the abundance fitness came to 0.032 ± 0.047.

“NEDD4-like E3 ubiquitin-protein ligase WWP2 G478S, O00308” displayed an abundance fitness of 0.019 ± 0.033.

Take “NEDD4-like E3 ubiquitin-protein ligase WWP2 G478T, O00308”: the abundance fitness came to 0.077 ± 0.059.

“NEDD4-like E3 ubiquitin-protein ligase WWP2 G478V, O00308”: the abundance fitness was -0.058 ± 0.047.

Regarding “NEDD4-like E3 ubiquitin-protein ligase WWP2 G478W, O00308”, the abundance fitness was -0.017 ± 0.032.

On to “NEDD4-like E3 ubiquitin-protein ligase WWP2 G478Y, O00308”, for which the abundance fitness was -0.084 ± 0.068.

“NEDD4-like E3 ubiquitin-protein ligase WWP2 G482A, O00308” displayed an abundance fitness of -0.033 ± 0.042.

Substance “NEDD4-like E3 ubiquitin-protein ligase WWP2 G482C, O00308” displayed an abundance fitness of -0.15 ± 0.062.
